Assay results as given in article PMC6684588.

Key:
[1] = target: myostatin (GDF8) (UniProt O14793)
[2] = target: activin B (UniProt P09529)
[3] = target: activin A (UniProt P08476)
[4] = target: growth differentiation factor 11 (GDF11) (UniProt O95390)
[5] = target: myostatin (GDF8) (UniProt O14793); remark: listed apart in the source
[6] = target: activin B (UniProt P09529); remark: listed apart in the source
[7] = target: activin A (UniProt P08476); remark: listed apart in the source
[8] = target: growth differentiation factor 11 (GDF11) (UniProt O95390); remark: listed apart in the source
[9] = target: ACE-083 (human); assay: SPR; detailed kinetics: ACE-083 captured on immobilized goat anti-human Fc-specific antibody; two-fold series of BMP6 (0.156 nM-5 nM) and BMP7 (0.078 nM-5 nM) injected in duplicate, association 210 sec, dissociation 600 sec, 100 μl/min; global fit to 1:1 model with mass transport term (BIAevaluation); means of two flow cells
[10] = target: ACE-083 (FST291-Fc fusion protein) (human); assay: SPR; Biacore T100, capture format at 37 °C; ACE-083 captured on an anti-human IgG Fc sensor chip, ligands injected as analytes in a concentration series in duplicate; association 210 sec, dissociation 600 sec (1200 sec for activin A and GDF11); global fit to a 1:1 binding model with mass transfer term; apparent KD

BMP7, sequence (P18075 293-431): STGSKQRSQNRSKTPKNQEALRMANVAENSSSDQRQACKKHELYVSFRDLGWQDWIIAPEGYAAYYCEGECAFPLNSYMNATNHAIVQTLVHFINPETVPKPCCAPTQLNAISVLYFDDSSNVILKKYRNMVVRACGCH

| Molecule | Kd [10] | koff [10] | kon [10] | further results |
| --- | --- | --- | --- | --- |
| ACE-083 (FST291-Fc fusion protein) |  |  |  | IC50 of inhibition of GDF8 signaling through its cognate receptors, CAGA12 dual-luciferase reporter-gene assay in A204 cells [1]: 0.676 nM; IC50 of inhibition of activin B signaling through its cognate receptors, CAGA12 dual-luciferase reporter-gene assay in A204 cells [2]: 0.0492 nM; IC50 of inhibition of activin A signaling through its cognate receptors, CAGA12 dual-luciferase reporter-gene assay in A204 cells [3]: 0.0392 nM; IC50 of inhibition of GDF11 signaling through its cognate receptors, CAGA12 dual-luciferase reporter-gene assay in A204 cells [4]: 0.0759 nM |
| ACE-083 (Fc fusion) |  |  |  | Supplementary Figure S2: IC50 of ACE-083 for inhibition of GDF8 signalling through its cognate receptors, luciferase reporter-gene assay in A204 cells (representative curve of three experiments) [5]: 81.9 ng/mL; Supplementary Figure S2: IC50 of ACE-083 for inhibition of activin B signalling through its cognate receptors, luciferase reporter-gene assay in A204 cells (representative curve of three experiments) [6]: 4.75 ng/mL; Supplementary Figure S2: IC50 of ACE-083 for inhibition of activin A signalling through its cognate receptors, luciferase reporter-gene assay in A204 cells (representative curve of three experiments) [7]: 4.63 ng/mL; Supplementary Figure S2: IC50 of ACE-083 for inhibition of GDF11 signalling through its cognate receptors, luciferase reporter-gene assay in A204 cells (representative curve of three experiments) [8]: 8.04 ng/mL |
| BMP7 (from UniProt P18075 293-431) (ligand) |  |  |  | Kd [9]: 0.291 nM; koff [9]: 0.00196 s⁻¹; kon [9]: 6.75e+06 M⁻¹ s⁻¹ |
| myostatin (GDF8) (from UniProt O14793 267-375) (ligand) | 0.348 nM | 0.000185 s⁻¹ | 532000 M⁻¹ s⁻¹ |  |
| activin A (ligand) GLECDGKVNICCKKQFFVSFKDIGWNDWIIAPSGYHANYCEGECPSHIAGTSGSSLSFHSTVINHYRMRGHSPFANLKSCCVPTKLRPMSMLYYDDGQNIIKKDIQNMIVEECGCS | 0.0788 nM | 0.000155 s⁻¹ | 1.97e+06 M⁻¹ s⁻¹ |  |
| growth differentiation factor 11 (GDF11) (ligand) NLGLDCDEHSSESRCCRYPLTVDFEAFGWDWIIAPKRYKANYCSGQCEYMFMQKYPHTHLVQQANPRGSAGPCCTPTKMSPINMLYFNDKQQIIYGKIPGMVVDRCGCS | 0.0154 nM | 7.2e-05 s⁻¹ | 4.77e+06 M⁻¹ s⁻¹ |  |
| activin B (ligand) GLECDGRTNLCCRQQFFIDFRLIGWNDWIIAPTGYYGNYCEGSCPAYLAGVPGSASSFHTAVVNQYRMRGLNPGTVNSCCIPTKLSTMSMLYFDDEYNIVKRDVPNMIVEECGCA | 0.0103 nM | 0.000199 s⁻¹ | 1.93e+07 M⁻¹ s⁻¹ |  |
